Data from publication PMC11452665.

Biological target: mink ryanodine receptor type 3 (RyR3) (mink)
Assay: cryo-EM structure

With “mink ryanodine receptor type 3 (RyR3) (natural protein)” the stoichiometry N was 4.
